Assay results taken from US20230340132A1, “ANTI-ADENOSINE RECEPTOR (A2aR) ANTIBODIES” (NA Biotech Corp, priority 2020, published 2023).
Several values for one entry are separate records, joined by “and”; a condition that tells them apart may be missing. Equal entries are not always repeated. Entries after “also recorded” stand apart in the source; their conditions may differ.

Key:
human A2aR = molecular target: T1, human A2aR (Homo sapiens, UniProt P29274); test: FACS screening of hybridoma clones on human A2aR-expressing Expi293 cells; type: binding; details: antibodies from hybridoma clones
T1 construct: expressed in transfected cells; host or cells: Expi293
T1 sequence (P29274 whole entry): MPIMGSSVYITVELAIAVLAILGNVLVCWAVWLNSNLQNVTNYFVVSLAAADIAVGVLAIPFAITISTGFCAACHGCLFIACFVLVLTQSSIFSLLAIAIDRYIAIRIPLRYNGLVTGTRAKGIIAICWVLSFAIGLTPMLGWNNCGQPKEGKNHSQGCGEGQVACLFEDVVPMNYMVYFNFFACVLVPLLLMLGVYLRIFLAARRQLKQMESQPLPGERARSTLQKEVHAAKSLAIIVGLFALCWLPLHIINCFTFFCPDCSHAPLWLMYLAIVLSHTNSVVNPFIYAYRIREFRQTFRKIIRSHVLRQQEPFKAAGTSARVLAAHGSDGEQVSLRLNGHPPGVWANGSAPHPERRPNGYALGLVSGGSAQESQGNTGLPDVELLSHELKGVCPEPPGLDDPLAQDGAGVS
Protocol: (§1) Serum titration was performed using Fluorescence-Activated Cell Sorting (FACS) pursuant to standard procedures. Human A2aR-expressing Expi293 cells were first added to 96-well plate (1×10^5 cells per well), 50 μl of serial diluted serum (1:50, 1;150, 1:450, 1:[…], 1:12150) from each individual mouse was incubated with cells for 30 min. on ice. After washing with FACS buffer (2% Fetal bovine serum, 2 mM EDTA in PBS), Alex Fluor 647-conjugated anti mouse IgG was added and incubated for 20 min on ice. Cells were resuspending with 100 μl FACS buffer after two times wash and ready for FACS analysis (BD LSR II Flow Cytometer, HTS). […] (MFI: mean fluorescence intensity).
(§2) Primary screening of the hybridoma supernatants in the 96-well plates was performed using the same FACS procedure as described for serum titration except following changes: 1) Human A2aR-expressing Expi293 cells (expressing GFP) were mixed at 1:1 ratio with parental Expi293 (no A2aR expression) and added to 96-well plates (2×10^5 cells per well), 2) 50 μl hybridoma supernatant transferred from each well of 96-well plates was incubated with cells for 30 min. on ice.
(§3) Sub-cloning was performed by limiting dilution method. In short, the positive wells identified by FACS were seeded into 96-well plate at an average density of 1 cell/well. The […] was placed in incubator for 7-10 days to allow the growth of the cells. The growth of cells was monitored periodically. At about day 4, the wells on the plate were observed under phase contrast microscopy and the wells which appeared to have single colony growing (i.e., only one clumping of hybridomas) were recorded. The cells from the single colony wells were screed by FACS using the same procedure as described for primary screening of hybridoma when the confluence of the cell reached about 50%.

[1] = molecular target: T2, human adenosine receptor A3 (human, UniProt P0DMS8 1-318); test: flow cytometry on HEK293T cells stably expressing human A3R
T2 construct: whole, on cells; the tag is not described; also called A3R; human A3R
T2 sequence (looked up): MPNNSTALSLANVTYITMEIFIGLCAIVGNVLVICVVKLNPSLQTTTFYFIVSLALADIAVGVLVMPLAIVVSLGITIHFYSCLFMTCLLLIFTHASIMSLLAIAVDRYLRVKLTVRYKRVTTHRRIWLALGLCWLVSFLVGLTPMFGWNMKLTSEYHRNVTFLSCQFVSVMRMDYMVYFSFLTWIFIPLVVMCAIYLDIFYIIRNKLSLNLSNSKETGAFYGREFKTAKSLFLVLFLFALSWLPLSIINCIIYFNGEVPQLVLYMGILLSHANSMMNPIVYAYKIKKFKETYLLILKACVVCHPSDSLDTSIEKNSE

[2] = molecular target: T3, mouse adenosine receptor A2A (mouse, UniProt Q60613 1-410); test: flow cytometry on HEK293T cells stably expressing mouse A2aR
T3 construct: whole, on cells; the tag is not described; also called mouse A2aR; mouse A2R
T3 sequence (Q60613 whole entry): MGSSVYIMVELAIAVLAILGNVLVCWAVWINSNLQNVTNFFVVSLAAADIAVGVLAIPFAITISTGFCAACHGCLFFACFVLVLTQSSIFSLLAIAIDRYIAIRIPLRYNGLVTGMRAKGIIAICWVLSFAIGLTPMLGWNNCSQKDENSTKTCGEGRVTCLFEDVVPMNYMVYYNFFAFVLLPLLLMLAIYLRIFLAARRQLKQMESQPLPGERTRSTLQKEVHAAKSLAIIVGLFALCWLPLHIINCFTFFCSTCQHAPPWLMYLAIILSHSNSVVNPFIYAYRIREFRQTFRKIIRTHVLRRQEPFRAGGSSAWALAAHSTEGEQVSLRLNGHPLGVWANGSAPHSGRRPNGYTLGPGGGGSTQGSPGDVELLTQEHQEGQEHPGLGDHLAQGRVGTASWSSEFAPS

parental Expi293 cells = test: FACS screening of hybridoma clones on parental Expi293 cells; type: binding; details: antibodies from hybridoma clones
Protocol: as §1, §2, §3

[3] = molecular target: human adenosine A2A receptor (A2aR) (human, UniProt P29274 1-412); test: cell-based or functional assay
Chain of human adenosine A2A receptor (A2aR) (P29274 whole entry): as the sequence (P29274 whole entry) above

[4] = molecular target: T4, human adenosine receptor A2A (Homo sapiens, UniProt P29274); test: flow cytometry-based cell-binding assay, HEK293T-A2A; details: for Geo Mean: HEK293T-A2A, duplicate; for binding to human A2aR (in words): summary of Table 12
T4 construct: FLAG
T4 sequence (P29274 whole entry): as above
Protocol: To test the specificity of the antigen binding molecules of the invention, e.g., anti-A2aR antibodies or antigen binding fragments thereof to human A2aR and not towards any of the other 3 adenosine receptor family members, a flow cytometry-based cell-binding assay was performed by Multispan Inc (Hayward, CA). HEK293T cells stably expressing various adenosine receptors, i.e., human A1R, A2bR, and A3R, and mouse A2R, generated by Multispan Inc and HEK293T parental cell lines were used in the assay. Briefly, adenosine receptor-overexpressing cell lines and HEK293T parental cell lines were incubated with 2, 10, and 50 nM of anti-human A2aR monoclonal antibodies (clones 1B5-3D7 and 3F6-9G5) and 10 and 50 nM of mouse IgG2a Isotype control at 4° C. in the dark for 60 minutes. Anti-FLAG antibody (Abcam, ab72469, 2 μg/mL) was used as positive control for cell lines over-expressing various adenosine receptors, respectively. After 3 washes with FACS buffer (PBS plus 0.1% BSA and 0.2% sodium azide), cells were stained with an anti-mouse-IgG-PE (Invitrogen, cat. P852) detection antibody for 45 minutes at 4° C. The cells were then washed 3 times with FACS buffer and analyzed on FACSort (Becton Dickinson). Data was analyzed using CellQuest Pro (Becton Dickinson).

[5] = molecular target: T5, human adenosine receptor A2B (human, UniProt P29275 1-332); test: flow cytometry on HEK293T cells stably expressing human A2bR
T5 construct: whole, on cells; the tag is not described; also called A2bR; human A2bR
T5 sequence (looked up): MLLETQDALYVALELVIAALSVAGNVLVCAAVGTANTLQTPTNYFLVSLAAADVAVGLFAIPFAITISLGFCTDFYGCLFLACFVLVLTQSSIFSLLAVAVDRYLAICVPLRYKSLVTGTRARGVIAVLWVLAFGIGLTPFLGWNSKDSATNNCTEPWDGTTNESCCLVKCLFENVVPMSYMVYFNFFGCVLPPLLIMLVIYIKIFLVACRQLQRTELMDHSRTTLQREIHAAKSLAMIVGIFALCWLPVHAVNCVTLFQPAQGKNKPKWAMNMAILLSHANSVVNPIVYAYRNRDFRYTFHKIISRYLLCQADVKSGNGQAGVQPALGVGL

[6] = test system: cynomolgus A2aR on cynomolgus T cells (PBMC); test: primary cell binding by flow cytometry, cynomolgus PBMC; details: rabbit Fc format, 2 μg/ml
Chain of cynomolgus A2aR on cynomolgus T cells (PBMC) (as listed by the source): as the sequence (P29274 whole entry) above, with M1V, S263N, A371T, G379S, D407G counted along it
Protocol: Human and cynomolgus PBMCs were purchased from Cytologics LLC (San Diego, CA) and iQ Biosciences (Berkeley, CA), respectively. Primary cell binding was determined using anti-human A2aR clone 3F6-9G5 at rabbit Fc format. In brief, 10^6 human and/or cynomolgus PBMCs in 100 μl FACS buffer were incubated with 3F6-9G5 (2 μg/ml) at 4° C. for 60 minutes. Cynomolgus cross-reactive anti-human CD3 (clone SP34, BD), anti-human CD8 (clone RPA-T8, Biolegend) and Zombie Green fixable Viability dye (Biolegend, Cat. 423111) were used according to manufacturer's instruction to define live immune cell subsets. After 3 washes with FACS buffer, cells were stained with PE-conjugated donkey anti-rabbit Fc detection antibody (1:200, Biolegend, Cat. 406421) for 30 minutes at 4° C. After 3 washes with FACS buffer, cells were analyzed on LSRII (Becton Dickinson). Data was analyzed using FlowJo (Becton Dickinson).

B1: anti-human A2aR monoclonal antibody 1B5-3D7 (antibody, V domains shown)
VH: QVQLQQPGTELVKPGAPVKLSCKTSGFTFTRFWMNWVRQRPGRGLEWIGRIDPYDSETQYNHKFWDRATLTVDKSSSTVYIQLSSLTSEDSAVYYCGRSLYGKGDYWGQGTTLTVSS
VL: DVLMTQSPLSLPVSLGDQASISCRSSQSIVHSNGNTYLEWYLQRPGQSPKLLIYKVSNRFSGVPDRFSGSGSGTYFTLRISRVEAEDLGIYYCFQGSHVPLTFGSGTTLELK
notes: Tested as whole mouse IgG2a / kappa, purified from hybridoma supernatant or made recombinantly in Expi293 cells; also called 1B-3D7
Human A2aR
  binding to human A2aR-expressing cells (FIG. 2): specific binding
[1]
  binding result: no binding (tested: 2, 10 and 50 nM tested)
[2]
  binding result: no binding (tested: 2, 10 and 50 nM tested)
Parental Expi293 cells
  binding to parental Expi293 cells (FIG. 2): not to parental Expi293 cells
[3]
  IC50 (M), cAMP-Glo assay of NECA-induced cAMP in HEK293 cells stably expressing human A2aR: 4.48e-09 M
[4]; 2 nM
  Geo Mean: 97.49 and 95.04
[4]; 10 nM
  Geo Mean: 261.79 and 221.91
[4]; 50 nM
  Geo Mean: 260.67 and 377.56
[4]
  binding to human A2aR (in words): specifically bound to human A2aR
[5]
  binding result: no binding (tested: 2, 10 and 50 nM tested)

B2: 3F6-9G5: anti-human A2aR monoclonal antibody from mouse hybridoma clone; HCVR SEQ ID NO: 36, LCVR SEQ ID NO: 42 (antibody, V domains shown)
VH: QVQLQQPGTELVKPGAPVRLSCKASGFAFTSYWMNWVRQRPGRGLEWIGRIDPSDSEAHYHHKFWGKATLTVDKSSSTVYIQLNGLTSEDSAVYYCLRSLYGKGDYWGHGTTLTVSS
VL: DVLMTQTPLSLSVRLGDQASISCRSSQSLVHRNGNTYLEWYLQRPGQSPKLLIYKVSNRFSGVPDRFSGSGSGTDFTLKISRVEAEDLGVYYCYQGSHVPLTFGSGTKLEIK
Human A2aR
  binding to human A2aR-expressing cells (FIG. 2): specific binding
Parental Expi293 cells
  binding to parental Expi293 cells (FIG. 2): not to parental Expi293 cells
[6]
  binding to cynomolgus T cells (CD4+ and CD8+) of PBMC (FIG. 6): cross-reacted with cynomolgus T cells; also recorded: binds
[4]; 2 nM
  Geo Mean: 112.47 and 109.2
[4]; 10 nM
  Geo Mean: 273.51 and 290.29
[4]; 50 nM
  Geo Mean: 270 and 289.37
[4]
  binding to human A2aR (in words): specifically bound to human A2aR
